Targets include HLA-A*02:01; HLA-A*02:17; HLA-A*02:06; HLA-B*51:01; HLA-A*02:03; HLA-A*68:02.
What all share (experiment): IEDB peptide-MHC binding, purified MHC/competitive/radioactivity; filed as Kd, often an IC50 or EC50 that approximates it; ≥ and ≤ were set here for values at or beyond the usual limits of such assays
The target of another assay is HLA-A*30:01. Particulars: source organism: Dengue virus 2 Peru/IQT2913/1996.
In a further assay the target is HLA-A*32:01. To be noted: source organism: Dengue virus 1 Brazil/97-11/1997.
Another assay addresses HLA-B*35:01. Particulars: source organism: Vaccinia virus WR.
A further assay concerns the target HLA-A*33:01. Particulars: source organism: Vaccinia virus WR.
In the next assay the target is HLA-A*31:01. To be noted: source organism: Vaccinia virus WR.
The next assay deals with HLA-B*53:01. Particulars: source organism: Vaccinia virus WR.
A further assay addresses HLA-A*02:02. Particulars: source organism: Vaccinia virus WR.
In a further assay the target is HLA-A*03:01. To be noted: source organism: Vaccinia virus WR.
For a further assay, the target named is HLA-A*11:01. Particulars: source organism: Vaccinia virus WR.
The target in the next assay is HLA-A*68:01. Particulars: source organism: Vaccinia virus WR.
Another assay concerns the target HLA-B*07:02. Particulars: source organism: Vaccinia virus WR.
The next assay deals with HLA-B*54:01. Particulars: source organism: Vaccinia virus WR.
The mark [1] stands for this setting: source organism: Dengue virus 1 Singapore/S275/1990.
Setting [2] is: source organism: Dengue virus 2 Thailand/NGS-C/1944.
[3] abbreviates: source organism: Dengue virus 2 Peru/IQT2913/1996.
The mark [4] stands for this setting: source organism: Dengue virus 2 Jamaica/1409/1983.
Setting [5] is: source organism: Dengue virus 3 Sri Lanka/1266/2000.
The mark [6] stands for this setting: source organism: Dengue virus 3 Martinique/1243/1999.
Setting [7] is: source organism: Dengue virus 3 China/80-2/1980.
[8] abbreviates: source organism: Dengue virus 1 Brazil/97-11/1997.
Where [9] appears, read: source organism: Vaccinia virus WR.
The mark [10] stands for this setting: source organism: Dengue virus 4 Philippines/H241/1956.

Consider FSLGLLCISI, for which the Kd with HLA-A*02:01 (setting [1]) is 7.58 nM; in the assay with HLA-A*02:17 (setting [1]), 942 nM; with HLA-A*02:06 (setting [1]) it was 2.6 nM; with HLA-B*51:01 (setting [1]) it was at least 40800 nM.

In the case of GMIIMLIPTV, the equilibrium dissociation constant (Kd) is 70.9 nM with HLA-A*02:01 (setting [2]); 6590 nM in the assay with HLA-A*02:17 (setting [2]); 94.7 nM in the assay with HLA-A*02:06 (setting [3]); 4.49 nM with HLA-A*02:03 (setting [3]); 12600 nM with HLA-A*30:01.

As for IILEFFLIV, the equilibrium dissociation constant (Kd) in the assay with HLA-A*02:17 (setting [4]) came to 89.8 nM; with HLA-A*02:06 (setting [4]), 0.384 nM.

As for ILAGVSLLPV, the Kd in the assay with HLA-A*02:01 (setting [5]) amounted to 4.65 nM; with HLA-A*02:17 (setting [5]), 1680 nM; with HLA-A*02:06 (setting [6]), 1.59 nM; with HLA-A*02:03 (setting [6]), 8.16 nM.

For the sequence ILALFLAHYI, the equilibrium dissociation constant (Kd) in the assay with HLA-A*02:17 (setting [7]) turned out to be 266 nM; with HLA-A*02:03 (setting [6]) it was 33.5 nM.

On to ILWENNIKL, for which the Kd with HLA-A*02:17 (setting [7]) is 91.1 nM.

With IMAIGIVSI, the Kd with HLA-A*32:01 came to 77.6 nM; with HLA-A*02:01 (setting [8]), 13.2 nM; in the assay with HLA-A*02:17 (setting [8]), 699 nM; in the assay with HLA-A*02:03 (setting [8]), 13.4 nM.

For IPFIAYFVLM, the equilibrium dissociation constant (Kd) turned out to be 1210 nM with HLA-B*35:01; 1470 nM with HLA-A*33:01; 9330 nM with HLA-A*68:02 (setting [9]); 1330 nM with HLA-A*02:01 (setting [9]); 652 nM with HLA-A*31:01; 1300 nM in the assay with HLA-B*53:01. The Kd is 3190 nM in the assay with HLA-A*02:02; 654 nM with HLA-A*03:01; 4520 nM with HLA-A*11:01; 1480 nM with HLA-A*68:01; at least 39600 nM in the assay with HLA-B*07:02; 7870 nM with HLA-A*02:06 (setting [9]). Further, the Kd is 2000 nM with HLA-B*54:01, 2050 nM with HLA-A*02:03 (setting [9]) and 2230 nM with HLA-B*51:01 (setting [9]).

In the case of MLLILCVTQV, the dissociation constant Kd in the assay with HLA-A*02:01 (setting [4]) came to 4.15 nM; in the assay with HLA-A*02:17 (setting [4]), 158 nM; with HLA-A*02:06 (setting [4]), 7.91 nM; with HLA-A*02:03 (setting [4]) it was 18.2 nM.

On to MVIENGILKK, for which the equilibrium dissociation constant (Kd) in the assay with HLA-B*35:01 was at least 30300 nM; with HLA-A*33:01 it was at least 35100 nM; with HLA-A*68:02 (setting [9]), 11200 nM; with HLA-A*02:01 (setting [9]), at least 69400 nM; with HLA-A*31:01, 4860 nM; with HLA-B*53:01 it was at least 69900 nM. Moreover, the Kd is at least 70000 nM with HLA-A*02:02; 38.3 nM with HLA-A*03:01; 12.3 nM with HLA-A*11:01; 14.9 nM with HLA-A*68:01; at least 69600 nM with HLA-B*07:02; at least 69800 nM with HLA-A*02:06 (setting [9]). Further, the Kd is at least 69900 nM with HLA-B*54:01, at least 70400 nM with HLA-A*02:03 (setting [9]) and at least 69600 nM with HLA-B*51:01 (setting [9]).

As for QLWATLLSL, the Kd was determined as 1.16 nM with HLA-A*02:01 (setting [1]) and 50.6 nM with HLA-A*02:17 (setting [1]).

Take SVLLWMASV: the dissociation constant (Kd) in the assay with HLA-A*02:01 (setting [1]) was determined as 6.33 nM; with HLA-A*02:17 (setting [1]) it was 20.9 nM; with HLA-A*02:06 (setting [1]), 15.7 nM.

Consider TIMAAILAYT, for which the dissociation constant Kd in the assay with HLA-A*68:02 (setting [4]) was found to be 86.8 nM; with HLA-A*02:01 (setting [4]), 33.4 nM; with HLA-A*02:17 (setting [4]), 12200 nM; with HLA-A*02:03 (setting [4]), 9.23 nM.

TLMLLALIAV: the equilibrium dissociation constant (Kd) with HLA-A*02:01 (setting [1]) was 7.52 nM; in the assay with HLA-A*02:17 (setting [1]), 9100 nM; with HLA-A*02:06 (setting [8]), 52.7 nM; in the assay with HLA-A*02:03 (setting [8]), 29.1 nM.

On to TMFGGVSWMV, for which the Kd in the assay with HLA-A*68:02 (setting [10]) was 5.34 nM; with HLA-A*02:01 (setting [10]), 4.46 nM; in the assay with HLA-A*02:17 (setting [10]), 338 nM; with HLA-A*02:06 (setting [10]), 2.25 nM; in the assay with HLA-A*02:03 (setting [10]) it was 65.1 nM.

With WMTTEDMLSV, the Kd came out at 18.8 nM with HLA-A*02:01 (setting [1]), 593 nM with HLA-A*02:17 (setting [1]), 10.6 nM with HLA-A*02:06 (setting [8]) and 8.93 nM in the assay with HLA-A*02:03 (setting [8]).

In the case of YIIRVTTEL, the dissociation constant (Kd) is 14600 nM with HLA-B*35:01; at least 77700 nM in the assay with HLA-A*33:01; 147 nM in the assay with HLA-A*68:02 (setting [9]); at least 77900 nM with HLA-A*31:01; at least 36700 nM in the assay with HLA-B*53:01; 0.856 nM in the assay with HLA-A*02:02. The Kd with HLA-A*03:01 was at least 78000 nM; with HLA-A*11:01 it was at least 77900 nM; with HLA-A*68:01, at least 64600 nM; in the assay with HLA-B*07:02 it was 521 nM; with HLA-A*02:06 (setting [9]) it was 18.1 nM; with HLA-B*54:01, at least 78100 nM. Also, the results for the Kd with HLA-A*02:03 (setting [9]) and with HLA-B*51:01 (setting [9]) were 17.6 nM and 14600 nM, respectively.

With YTMCSGKFSI, the figures for the Kd with HLA-A*68:02 (setting [10]), with HLA-A*02:01 (setting [10]) and with HLA-A*02:17 (setting [10]) were 1.45 nM, 79.8 nM and 538 nM, respectively.

These data come from the Immune Epitope Database (IEDB).
